Assay results taken from the supplement of paper PMC9876800.

Test system: peptide library, one residue held at a place counted from the S/T acceptor
Assay: relative phosphorylation of the sub-library (ratio to the mean residue at this position); higher = residue favoured
In short: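 Each biotinylated degenerate peptide sub-library fixed one residue at one position around a central Ser/Thr and was incubated with a purified recombinant kinase, a human or orthologue construct, in 384-well plates. The 90 min reactions, under kinase-specific conditions, contained 50 μM peptide and 50 μM ATP spiked with γ-32P-ATP. Phosphorylation was read by phosphorimaging spots on streptavidin membranes and quantifying them by densitometry. Relative sub-library phosphorylation expresses each value as a ratio to the mean residue at that position.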

Sequence of BMPR1A, construct: aa187-end, human (P36894 187-532, looked up): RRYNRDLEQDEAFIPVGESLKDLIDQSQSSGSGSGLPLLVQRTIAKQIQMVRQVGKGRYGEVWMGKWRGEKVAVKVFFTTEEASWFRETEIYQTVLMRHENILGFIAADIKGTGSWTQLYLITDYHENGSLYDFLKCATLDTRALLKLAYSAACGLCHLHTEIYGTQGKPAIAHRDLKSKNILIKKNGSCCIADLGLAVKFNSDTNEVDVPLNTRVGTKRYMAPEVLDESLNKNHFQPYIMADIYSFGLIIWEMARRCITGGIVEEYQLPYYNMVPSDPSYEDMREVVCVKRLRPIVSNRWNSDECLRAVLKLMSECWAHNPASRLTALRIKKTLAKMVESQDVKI

BMPR1A, construct: aa187-end, human (from UniProt P36894)
relative phosphorylation
Details	at +1	at +2	at +3	at +4	at -1	at -2	at -3	at -4	at -5
A fixed	0.574	0.952	0.911	0.854	0.648	0.721	0.791	0.912	0.982
D fixed	2.03	1.24	1.79	1.3	1.72	1.97	2.32	2.47	1.88
E fixed	6.79	1.52	1.55	1.31	1.95	7.73	2.92	1.81	1.65
F fixed	0.398	0.622	0.89	0.889	0.797	0.384	0.65	0.792	0.807
G fixed	0.58	1.89	0.941	1	0.483	0.579	0.948	0.958	0.93
H fixed	0.431	1.25	0.889	1.06	0.983	0.483	0.826	0.987	1.02
I fixed	0.677	0.554	1.01	1.01	0.809	0.432	0.662	0.781	0.83
K fixed	0.335	0.803	0.498	0.738	0.587	0.351	0.564	0.741	0.86
L fixed	0.417	0.613	0.926	0.797	1.17	0.453	0.649	0.701	0.802
M fixed	0.57	0.721	0.85	0.922	1.67	0.462	0.859	0.808	0.791
N fixed	0.668	0.776	0.793	0.946	1.01	0.693	1.24	1.08	1.22
P fixed	0.265	1.31	0.936	0.964	0.466	0.401	0.74	0.775	0.699
Q fixed	0.644	0.735	0.729	0.931	1.13	0.659	1.02	0.892	0.908
R fixed	0.314	0.691	0.478	0.767	0.555	0.395	0.636	0.718	0.886
V fixed	1.47	0.632	1.13	0.961	1.23	0.545	0.731	0.887	0.832
W fixed	0.421	1.14	1.46	1.38	0.77	0.392	0.676	0.887	0.965
Y fixed	0.417	1.55	1.21	1.18	1.02	0.349	0.755	0.791	0.928
pThr fixed	5.36	1.98	1.01	1.31	1.08	1.66	2.19	1.53	1.46
pTyr fixed	1.09	0.876	1.35	1.22	1.54	0.763	1.55	1.09	1.42
